Tests used:
[1] = substrate: O=C(O)c1ccc(C(=O)OCCO)cc1; test: HPLC substrate reduction, Michaelis-Menten fit; assay type: biochemical, Pseudideonella sakaiensis; conditions: 40°C, 20 mM Tris-HCl pH 8.0
Excerpt: (§1) HPLC substrate reduction, Michaelis-Menten fit on IsPETase

[2] = substrate: O=C(OCCO)c1ccc(C(=O)OCCO)cc1; test: HPLC substrate reduction, Michaelis-Menten fit; assay type: biochemical, Pseudideonella sakaiensis; conditions: 40°C, 20 mM Tris-HCl pH 8.0
Excerpt: as §1

[3] = substrate: O=C(O)c1ccc(C(=O)OCCO)cc1; test: HPLC substrate reduction, Michaelis-Menten fit; assay type: biochemical, unidentified prokaryotic organism; conditions: 40°C, 20 mM Tris-HCl pH 8.0
Excerpt: (§2) HPLC substrate reduction, Michaelis-Menten fit on ICCG

[4] = substrate: O=C(OCCO)c1ccc(C(=O)OCCO)cc1; test: HPLC substrate reduction, Michaelis-Menten fit; assay type: biochemical, unidentified prokaryotic organism; conditions: 40°C, 20 mM Tris-HCl pH 8.0
Excerpt: as §2

[5] = substrate: CCCCCCCCCCCCCCCCCC(=O)Oc1ccc([N+](=O)[O-])cc1; test: purified protein; assay type: biochemical, Marinactinospora thermotolerans; conditions: 30°C, 20 mM Tris-HCl pH 8.0
[6] = substrate: CC(=O)Oc1ccc([N+](=O)[O-])cc1; test: purified protein; assay type: biochemical, Marinactinospora thermotolerans; conditions: 30°C, 20 mM Tris-HCl pH 8.0
[7] = substrate: CCCCCCCCCCCCCCCC(=O)Oc1ccc([N+](=O)[O-])cc1; test: purified protein; assay type: biochemical, Marinactinospora thermotolerans; conditions: 30°C, 20 mM Tris-HCl pH 8.0
[8] = substrate: CCCCCCCCCCCCCC(=O)Oc1ccc([N+](=O)[O-])cc1; test: purified protein; assay type: biochemical, Marinactinospora thermotolerans; conditions: 30°C, 20 mM Tris-HCl pH 8.0
[9] = substrate: CCCCCCCC(=O)Oc1ccc([N+](=O)[O-])cc1; test: purified protein; assay type: biochemical, Marinactinospora thermotolerans; conditions: 30°C, 20 mM Tris-HCl pH 8.0
[10] = substrate: CCCCCC(=O)Oc1ccc([N+](=O)[O-])cc1; test: purified protein; assay type: biochemical, Marinactinospora thermotolerans; conditions: 30°C, 20 mM Tris-HCl pH 8.0
[11] = substrate: CCCC(=O)Oc1ccc([N+](=O)[O-])cc1; test: purified protein; assay type: biochemical, Marinactinospora thermotolerans; conditions: 30°C, 20 mM Tris-HCl pH 8.0
[12] = substrate: CCCCCCCCCC(=O)Oc1ccc([N+](=O)[O-])cc1; test: purified protein; assay type: biochemical, Marinactinospora thermotolerans; conditions: 30°C, 20 mM Tris-HCl pH 8.0
[13] = substrate: CCCCCCCCCCCC(=O)Oc1ccc([N+](=O)[O-])cc1; test: purified protein; assay type: biochemical, Marinactinospora thermotolerans; conditions: 30°C, 20 mM Tris-HCl pH 8.0
[14] = substrate: O=C(O)c1ccc(C(=O)OCCO)cc1; test: HPLC substrate reduction, Michaelis-Menten fit; assay type: biochemical, Marinactinospora thermotolerans; conditions: 40°C, 20 mM Tris-HCl pH 8.0
Excerpt: (§3) HPLC substrate reduction, Michaelis-Menten fit on MtCut

[15] = substrate: O=C(OCCO)c1ccc(C(=O)OCCO)cc1; test: HPLC substrate reduction, Michaelis-Menten fit; assay type: biochemical, Marinactinospora thermotolerans; conditions: 40°C, 20 mM Tris-HCl pH 8.0
Excerpt: as §3

B1: IsPETase (Pseudideonella sakaiensis) (protein)
chain: QTNPYARGPNPTAASLEASAGPFTVRSFTVSRPSGYGAGTVYYPTNAGGTVGAIAIVPGYTARQSSIKWWGPRLASHGFVVITIDTNSTLDQPSSRSSQQMAALRQVASLNGTSSSPIYGKVDTARMGVMGWSMGGGGSLISAANNPSLKAAAPQAPWDSSTNFSSVTVPTLIFACENDSIAPVNSSALPIYDSMSRNAKQFLEINGGSHSCANSGNSNQALIGKKGVAWMKRFMDNDTRYSTFACENPNSTRVSDFRTANCS
notes: purified enzyme; expression construct not described
Km [1]: 720 ± 20 µM | kcat [1]: 0.0139 ± 0.0006 s⁻¹ | kcat/Km [1]: 19.2 ± 0.45 M⁻¹ s⁻¹ | Km [2]: 4480 ± 540 µM | kcat [2]: 5.95 ± 0.62 s⁻¹ | kcat/Km [2]: 1330 ± 20 M⁻¹ s⁻¹

B2: ICCG (unidentified prokaryotic organism; D238C/F243I/S283C/Y127G) (protein)
chain: SNPYQRGPNPTRSALTADGPFSVATYTVSRLSVSGFGGGVIYYPTGTSLTFGGIAMSPGYTADASSLAWLGRRLASHGFVVLVINTNSRFDGPDSRASQLSAALNYLRTSSPSAVRARLDANRLAVAGHSMGGGGTLRIAEQNPSLKAAVPLTPWHTDKTFNTSVPVLIVGAEADTVAPVSQHAIPFYQNLPSTTPKVYVELCNASHIAPNSNNAAISVYTISWMKLWVDNDTRYRQFLCNVNDPALCDFRTNNRHCQ
notes: quadruple variant of LCC; only D238C/S283C given, the other two changes (F243I, Y127G) known from Tournier et al. 2020; expression construct not described; PDB 6THT given as the ICCG structure used for modelling
Km [3]: 430 ± 20 µM | kcat [3]: 0.0032 ± 0.0001 s⁻¹ | kcat/Km [3]: 6.75 ± 0.32 M⁻¹ s⁻¹ | Km [4]: 2580 ± 980 µM | kcat [4]: 2.29 ± 0.95 s⁻¹ | kcat/Km [4]: 1000 ± 170 M⁻¹ s⁻¹

B3: MtCut (Marinactinospora thermotolerans DSM 45154) (protein)
chain: NPYERGPAPTESSVTAVRGYFDTDTDTVSSLVSGFGGGTIYYPTDTSEGTFGGVVIAPGYTASQSSMAWMGHRIASQGFVVFTIDTITRYDQPDSRGRQIEAALDYLVEDSDVADRVDGNRLAVMGHSMGGGGTLAAAENRPELRAAIPLTPWHLQKNWSDVEVPTMIIGAENDTVASVRTHSIPFYESLDEDLERAYLELDGASHFAPNISNTVIAKYSISWLKRFVDEDERYEQFLCPPPDTGLFSDFSDYRDSCPHTT
notes: 786 bp fragment, signal peptide removed, C-terminal His6 (pET22b(+), NdeI/XhoI), E. coli BL21(DE3), 34 kDa
Km [5]: 450 ± 20 µM | kcat [5]: 14.3 ± 0.58 s⁻¹ | kcat/Km [5]: 31800 ± 200 M⁻¹ s⁻¹ | Km [6]: 550 ± 40 µM | kcat [6]: 4.47 ± 0.28 s⁻¹ | kcat/Km [6]: 8190 ± 340 M⁻¹ s⁻¹ | Km [7]: 150 ± 10 µM | kcat [7]: 4.79 ± 0.12 s⁻¹ | kcat/Km [7]: 32500 ± 1000 M⁻¹ s⁻¹ | Km [8]: 190 ± 40 µM | kcat [8]: 9.87 ± 1.52 s⁻¹ | kcat/Km [8]: 51400 ± 2900 M⁻¹ s⁻¹ | Km [9]: 2550 ± 280 µM | kcat [9]: 79.4 ± 8.75 s⁻¹ | kcat/Km [9]: 31100 ± 50 M⁻¹ s⁻¹ | Km [10]: 4610 ± 1040 µM | kcat [10]: 41.7 ± 6.35 s⁻¹ | kcat/Km [10]: 9230 ± 900 M⁻¹ s⁻¹ | Km [11]: 1330 ± 150 µM | kcat [11]: 14.1 ± 1.51 s⁻¹ | kcat/Km [11]: 10600 ± 100 M⁻¹ s⁻¹ | Km [12]: 4930 ± 530 µM | kcat [12]: 69.8 ± 5.15 s⁻¹ | kcat/Km [12]: 14200 ± 500 M⁻¹ s⁻¹ | Km [13]: 1680 ± 120 µM | kcat [13]: 30.5 ± 3.63 s⁻¹ | kcat/Km [13]: 18100 ± 1200 M⁻¹ s⁻¹ | Km [14]: 750 ± 110 µM | kcat [14]: 0.13 ± 0.01 s⁻¹ | kcat/Km [14]: 176 ± 14 M⁻¹ s⁻¹ | Km [15]: 3070 ± 930 µM | kcat [15]: 4.27 ± 1.15 s⁻¹ | kcat/Km [15]: 1410 ± 70 M⁻¹ s⁻¹

Source: publication PMC9086285, “Catalytic Features and Thermal Adaptation Mechanisms of a Deep Sea Bacterial Cutinase-Type Poly(Ethylene Terephthalate) Hydrolase” (Frontiers in Bioengineering and Biotechnology, 2022)
